# Experimental data: ChEMBL document CHEMBL1908105, “UDP-glucuronosyltransferases and clinical drug-drug interactions” (Pharmacol Ther, 2005)
# “And” between values parts separate entries of the source, which are not always exact repeats. Equal entries are not always repeated.
# B1: UDP-glucuronosyltransferase 1A3 (Homo sapiens) (protein)
# chain: MATGLQVPLPWLATGLLLLLSVQPWAESGKVLVVPIDGSHWLSMREVLRELHARGHQAVVLTPEVNMHIKEENFFTLTTYAISWTQDEFDRHVLGHTQLYFETEHFLKKFFRSMAMLNNMSLVYHRSCVELLHNEALIRHLNATSFDVVLTDPVNLCAAVLAKYLSIPTVFFLRNIPCDLDFKGTQCPNPSSYIPRLLTTNSDHMTFMQRVKNMLYPLALSYICHAFSAPYASLASELFQREVSVVDILSHASVWLFRGDFVMDYPRPIMPNMVFIGGINCANRKPLSQEFEAYINASGEHGIVVFSLGSMVSEIPEKKAMAIADALGKIPQTVLWRYTGTRPSNLANNTILVKWLPQNDLLGHPMTRAFITHAGSHGVYESICNGVPMVMMPLFGDQMDNAKRMETKGAGVTLNVLEMTSEDLENALKAVINDKSYKENIMRLSSLHKDRPVEPLDLAVFWVEFVMRHKGAPHLRPAAHDLTWYQYHSLDVIGFLLAVVLTVAFITFKCCAYGYRKCLGKKGRVKKAHKSKTH
# B2: UDP-glucuronosyltransferase 1A4 (Homo sapiens) (protein)
# chain: MARGLQVPLPRLATGLLLLLSVQPWAESGKVLVVPTDGSPWLSMREALRELHARGHQAVVLTPEVNMHIKEEKFFTLTAYAVPWTQKEFDRVTLGYTQGFFETEHLLKRYSRSMAIMNNVSLALHRCCVELLHNEALIRHLNATSFDVVLTDPVNLCGAVLAKYLSIPAVFFWRYIPCDLDFKGTQCPNPSSYIPKLLTTNSDHMTFLQRVKNMLYPLALSYICHTFSAPYASLASELFQREVSVVDLVSYASVWLFRGDFVMDYPRPIMPNMVFIGGINCANGKPLSQEFEAYINASGEHGIVVFSLGSMVSEIPEKKAMAIADALGKIPQTVLWRYTGTRPSNLANNTILVKWLPQNDLLGHPMTRAFITHAGSHGVYESICNGVPMVMMPLFGDQMDNAKRMETKGAGVTLNVLEMTSEDLENALKAVINDKSYKENIMRLSSLHKDRPVEPLDLAVFWVEFVMRHKGAPHLRPAAHDLTWYQYHSLDVIGFLLAVVLTVAFITFKCCAYGYRKCLGKKGRVKKAHKSKTH
# B3: UDP-glucuronosyltransferase 1A1 (Homo sapiens) (protein)
# chain: MAVESQGGRPLVLGLLLCVLGPVVSHAGKILLIPVDGSHWLSMLGAIQQLQQRGHEIVVLAPDASLYIRDGAFYTLKTYPVPFQREDVKESFVSLGHNVFENDSFLQRVIKTYKKIKKDSAMLLSGCSHLLHNKELMASLAESSFDVMLTDPFLPCSPIVAQYLSLPTVFFLHALPCSLEFEATQCPNPFSYVPRPLSSHSDHMTFLQRVKNMLIAFSQNFLCDVVYSPYATLASEFLQREVTVQDLLSSASVWLFRSDFVKDYPRPIMPNMVFVGGINCLHQNPLSQEFEAYINASGEHGIVVFSLGSMVSEIPEKKAMAIADALGKIPQTVLWRYTGTRPSNLANNTILVKWLPQNDLLGHPMTRAFITHAGSHGVYESICNGVPMVMMPLFGDQMDNAKRMETKGAGVTLNVLEMTSEDLENALKAVINDKSYKENIMRLSSLHKDRPVEPLDLAVFWVEFVMRHKGAPHLRPAAHDLTWYQYHSLDVIGFLLAVVLTVAFITFKCCAYGYRKCLGKKGRVKKAHKSKTH
# B4: UDP-glucuronosyltransferase 2B15 (Homo sapiens) (protein)
# chain: MSLKWTSVFLLIQLSCYFSSGSCGKVLVWPTEYSHWINMKTILEELVQRGHEVTVLTSSASTLVNASKSSAIKLEVYPTSLTKNYLEDSLLKILDRWIYGVSKNTFWSYFSQLQELCWEYYDYSNKLCKDAVLNKKLMMKLQESKFDVILADALNPCGELLAELFNIPFLYSLRFSVGYTFEKNGGGFLFPPSYVPVVMSELSDQMIFMERIKNMIHMLYFDFWFQIYDLKKWDQFYSEVLGRPTTLFETMGKAEMWLIRTYWDFEFPRPFLPNVDFVGGLHCKPAKPLPKEMEEFVQSSGENGIVVFSLGSMISNMSEESANMIASALAQIPQKVLWRFDGKKPNTLGSNTRLYKWLPQNDLLGHPKTKAFITHGGTNGIYEAIYHGIPMVGIPLFADQHDNIAHMKAKGAALSVDIRTMSSRDLLNALKSVINDPVYKENVMKLSRIHHDQPMKPLDRAVFWIEFVMRHKGAKHLRVAAHNLTWIQYHSLDVIAFLLACVATVIFIITKFCLFCFRKLAKKGKKKKRD
# Key:
# [1] = molecular target: UDP-glucuronosyltransferase 1A6 (Homo sapiens, UniProt P19224); assay: Drug glucuronidation reaction catalyzed by human recombinant UGT1A6
# [2] = molecular target: UDP-glucuronosyltransferase 2B28 (Homo sapiens, UniProt Q9BY64); assay: Drug glucuronidation reaction catalyzed by human recombinant UGT2B28
# [3] = molecular target: T1, UDP-glucuronosyltransferase 1A4 (Homo sapiens, UniProt P22310); assay: (§1) Drug glucuronidation reaction catalyzed by human recombinant UGT1A4
# T1 sequence (P22310 whole entry): B2 chain
# [4] = molecular target: UGT1A4 (Homo sapiens, UniProt P22310); assay: as §1; conditions: recombinant UGT1A4
# [5] = substrate: CN1CCC(=C2c3ccccc3CC(=O)c3sccc32)CC1; assay: (§2) Drug glucuronidation reaction catalyzed by human recombinant UGT1A3
# [6] = substrate: CN1CC[C@]23c4c5ccc(O[C@@H]6O[C@H](C(=O)O)[C@@H](O)[C@H](O)[C@H]6O)c4O[C@H]2[C@@H](O)C=C[C@H]3[C@H]1C5; assay: as §2
# [7] = substrate: O=C1[C@H](CC[C@H](O)c2ccc(F)cc2)[C@@H](c2ccc(O)cc2)N1c1ccc(F)cc1; assay: as §2
# [8] = substrate: CC(C)Cc1ccc(C(C)C(=O)O)cc1; assay: as §2
# [9] = substrate: CO[C@]12CC[C@@]3(C[C@@H]1[C@](C)(O)C(C)(C)C)[C@H]1Cc4ccc(O)c5c4[C@@]3(CCN1CC1CC1)[C@H]2O5; assay: as §2
# [10] = substrate: CN(C)CCCN1c2ccccc2CCc2ccccc21; assay: as §2
# [11] = substrate: CN1CCC(=C2c3ccccc3C=Cc3ccccc32)CC1; assay: as §2
# [12] = substrate: CC(C(=O)O)c1cccc(C(=O)c2ccccc2)c1; assay: as §2
# [13] = substrate: Cc1c(Cl)cccc1Nc1ncccc1C(=O)O; assay: not read
# [14] = substrate: CN1CCC(=C2c3ccccc3CC(=O)c3sccc32)CC1; assay: as §1
# [15] = substrate: CC/C(=C(\c1ccccc1)c1ccc(OCCN(C)C)cc1)c1ccccc1; assay: as §1
# [16] = substrate: CCc1c2c(nc3ccc(O)cc13)-c1cc3c(c(=O)n1C2)COC(=O)[C@]3(O)CC; assay: as §1
# [17] = substrate: CC[C@@H]([C@H](C)O)n1ncn(-c2ccc(N3CCN(c4ccc(OC[C@@H]5CO[C@@](Cn6cncn6)(c6ccc(F)cc6F)C5)cc4)CC3)cc2)c1=O; assay: as §1
# [18] = substrate: CC(O)/C(=C(\c1ccccc1)c1ccc(OCCN(C)C)cc1)c1ccccc1; assay: as §1
# [19] = substrate: CN1CCC(=C2c3ccccc3C=Cc3ccccc32)CC1; assay: as §1
# [20] = substrate: COc1cc([C@@H]2c3cc4c(cc3[C@@H](O[C@@H]3O[C@@H]5CO[C@@H](C)O[C@H]5[C@H](O)[C@H]3O)[C@H]3COC(=O)[C@H]23)OCO4)cc(OC)c1O; assay: (§3) Drug glucuronidation reaction catalyzed by human recombinant UGT1A1
# [21] = substrate: CN1CC[C@]23c4c5ccc(O[C@@H]6O[C@H](C(=O)O)[C@@H](O)[C@H](O)[C@H]6O)c4O[C@H]2[C@@H](O)C=C[C@H]3[C@H]1C5; assay: as §3
# [22] = substrate: C=CCN1CC[C@]23c4c5ccc(O)c4O[C@H]2[C@@H](O)C=C[C@H]3[C@H]1C5; assay: as §3
# [23] = substrate: COc1c(C)c2c(c(O)c1C/C=C(\C)CCC(=O)O)C(=O)OC2; assay: as §3
# [24] = substrate: O=C1[C@H](CC[C@H](O)c2ccc(F)cc2)[C@@H](c2ccc(O)cc2)N1c1ccc(F)cc1; assay: as §3
# [25] = substrate: CCN(CC)C(=O)/C(C#N)=C/c1cc(O[C@@H]2O[C@@H](C(=O)O)[C@@H](O)[C@H](O)[C@@H]2O)c(O)c([N+](=O)[O-])c1; assay: as §3
# [26] = substrate: CCc1c2c(nc3ccc(O)cc13)-c1cc3c(c(=O)n1C2)COC(=O)[C@]3(O)CC; assay: as §3
# [27] = substrate: CC(=O)Nc1ccc(O)cc1; assay: as §3
# [28] = substrate: CO[C@]12CC[C@@]3(C[C@@H]1[C@](C)(O)C(C)(C)C)[C@H]1Cc4ccc(O)c5c4[C@@]3(CCN1CC1CC1)[C@H]2O5; assay: as §3
# [29] = substrate: CC(O)/C(=C(\c1ccccc1)c1ccc(OCCN(C)C)cc1)c1ccccc1; assay: as §3
# [30] = substrate: C#C[C@]1(O)CC[C@H]2[C@@H]3CCc4cc(O)ccc4[C@H]3CC[C@@]21C; assay: as §3
# [31] = substrate: O=C1CC[C@@]2(O)[C@H]3Cc4ccc(O)c5c4[C@@]2(CCN3CC2CC2)[C@H]1O5; assay: as §3
# [32] = substrate: CCOC(=O)Nc1ccc(NCc2ccc(F)cc2)cc1N; assay: as §3
# [33] = substrate: CCN(CC)C(=O)/C(C#N)=C\c1cc(O[C@@H]2O[C@@H](C(=O)O)[C@@H](O)[C@H](O)[C@@H]2O)c(O)c([N+](=O)[O-])c1; assay: as §3
# [34] = substrate: C[C@]12CC[C@H](O)C[C@@H]1CC[C@@H]1[C@@H]2CC[C@]2(C)[C@@H](O)CC[C@@H]12; assay: (§4) Drug glucuronidation reaction catalyzed by human recombinant UGT2B15
# [35] = substrate: Cc1ccc(C(=O)c2cc(O)c(O)c([N+](=O)[O-])c2)cc1; assay: as §4
# [36] = substrate: CCN(CC)C(=O)/C(C#N)=C/c1cc(O)c(O)c([N+](=O)[O-])c1; assay: as §4
# [37] = substrate: CCc1c2c(nc3ccc(O)cc13)-c1cc3c(c(=O)n1C2)COC(=O)[C@]3(O)CC; assay: as §4
# [38] = substrate: CC(O)/C(=C(\c1ccccc1)c1ccc(OCCN(C)C)cc1)c1ccccc1; assay: as §4
# [39] = substrate: CS(=O)(=O)c1ccc(C2=C(c3ccccc3)C(=O)OC2O)cc1; assay: as §4
# [40] = substrate: O=C1Nc2ccc(Cl)cc2C(c2ccccc2)=N[C@H]1O; assay: not read
# Chain of UDP-glucuronosyltransferase 1A6 (P19224 whole entry): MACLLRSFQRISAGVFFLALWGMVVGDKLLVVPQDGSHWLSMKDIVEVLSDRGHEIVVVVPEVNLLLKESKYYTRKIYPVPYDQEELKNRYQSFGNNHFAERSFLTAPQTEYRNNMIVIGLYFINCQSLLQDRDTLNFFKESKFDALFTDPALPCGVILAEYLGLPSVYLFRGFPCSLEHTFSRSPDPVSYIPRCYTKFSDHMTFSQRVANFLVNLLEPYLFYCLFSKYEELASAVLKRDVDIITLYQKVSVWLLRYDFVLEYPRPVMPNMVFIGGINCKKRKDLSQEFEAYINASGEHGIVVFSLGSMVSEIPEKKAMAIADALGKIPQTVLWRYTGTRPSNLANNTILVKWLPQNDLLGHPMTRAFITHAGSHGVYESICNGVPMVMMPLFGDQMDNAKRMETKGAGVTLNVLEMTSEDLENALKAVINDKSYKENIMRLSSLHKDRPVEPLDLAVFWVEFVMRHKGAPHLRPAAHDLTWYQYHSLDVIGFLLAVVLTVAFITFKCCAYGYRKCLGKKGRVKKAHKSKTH
# Chain of UDP-glucuronosyltransferase 2B28 (Q9BY64 whole entry): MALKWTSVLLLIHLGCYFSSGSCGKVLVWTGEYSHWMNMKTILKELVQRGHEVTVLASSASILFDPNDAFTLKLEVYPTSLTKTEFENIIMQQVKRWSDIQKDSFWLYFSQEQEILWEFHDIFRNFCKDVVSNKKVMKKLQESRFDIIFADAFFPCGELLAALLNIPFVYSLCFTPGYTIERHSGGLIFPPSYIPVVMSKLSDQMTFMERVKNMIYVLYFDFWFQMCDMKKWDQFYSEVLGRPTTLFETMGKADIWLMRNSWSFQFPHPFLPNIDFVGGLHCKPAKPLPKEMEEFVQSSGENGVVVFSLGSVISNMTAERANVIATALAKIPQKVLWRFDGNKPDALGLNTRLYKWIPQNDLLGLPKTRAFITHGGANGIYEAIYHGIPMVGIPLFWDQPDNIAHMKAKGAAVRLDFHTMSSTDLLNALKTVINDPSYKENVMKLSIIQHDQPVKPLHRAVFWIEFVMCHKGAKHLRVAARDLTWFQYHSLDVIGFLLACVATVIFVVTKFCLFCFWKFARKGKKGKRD
molecule,measurement,setting,value
CC(=O)Nc1ccc(O)cc1 [ACETAMINOPHEN],Vmax,[1],100 pmol/min/mg protein
C[C@]12CC[C@@H]3c4ccc(O)cc4CC[C@H]3[C@@H]1CC[C@@H]2O [ESTRADIOL],Vmax,[2],< 1 pmol/min/mg protein
Cc1cc2c(s1)Nc1ccccc1N=C2N1CCN(C)CC1 [OLANZAPINE],Vmax,[3],2370 pmol/min/mg protein
same,Km,[4],227 µM
B1,Km,[5],225 µM and 123 µM
same,Km,[6],3200 µM
same,Vmax,[6],1e-05 µmol/min/mg
same,Km,[7],42 µM
same,Vmax,[7],0.00048 µmol/min/mg
same,Km,[8],230 µM
same,Vmax,[8],8.8e-05 µmol/min/mg
same,Km,[9],55 µM
same,Vmax,[9],7.5e-05 µmol/min/mg
same,Km,[10],472 µM
same,Vmax,[10],1e-05 µmol/min/mg
same,Km,[11],240 µM
same,Vmax,[11],0.000134 µmol/min/mg
same,Km,[12],84 µM
same,Vmax,[12],7.6e-05 µmol/min/mg
same,Km,[13],624 µM
same,Vmax,[13],5.2e-05 µmol/min/mg
B2,Km,[14],59 µM and 86 µM
same,Km,[15],32 µM
same,Vmax,[15],0.000402 µmol/min/mg
same,Km,[16],147 µM
same,Vmax,[16],0.000132 µmol/min/mg
same,Km,[17],16 µM
same,Vmax,[17],1.7e-05 µmol/min/mg
same,Km,[18],95 µM and 101 µM
same,Km,[19],62 µM
same,Vmax,[19],4.9e-05 µmol/min/mg
B3,Km,[20],503 µM
same,Vmax,[20],0.000267 µmol/min/mg
same,Km,[21],18700 µM
same,Vmax,[21],4.5e-06 µmol/min/mg
same,Km,[22],2070 µM
same,Vmax,[22],2e-06 µmol/min/mg
same,Km,[23],185 µM
same,Vmax,[23],0.000336 µmol/min/mg
same,Km,[24],64 µM
same,Vmax,[24],0.00071 µmol/min/mg
same,Km,[25],31 µM
same,Vmax,[25],4e-06 µmol/min/mg
same,Km,[26],24 µM
same,Vmax,[26],0.000134 µmol/min/mg
same,Km,[27],9400 µM
same,Vmax,[27],0.0013 µmol/min/mg
same,Km,[28],57 µM and 69 µM
same,Km,[29],138 µM and 129 µM
same,Km,[30],9 µM and 20 µM
same,Km,[31],1310 µM
same,Vmax,[31],2e-06 µmol/min/mg
same,Km,[32],460 µM
same,Km,[33],93 µM
same,Vmax,[33],5e-06 µmol/min/mg
B4,Km,[34],15 µM
same,Vmax,[34],0.00098 µmol/min/mg
same,Km,[35],429 µM
same,Vmax,[35],2.4e-05 µmol/min/mg
same,Km,[36],322 µM
same,Vmax,[36],2.4e-05 µmol/min/mg
same,Km,[37],186 µM
same,Vmax,[37],2e-06 µmol/min/mg
same,Km,[38],7 µM and 18 µM
same,Km,[39],286 µM
same,Vmax,[39],1.6e-05 µmol/min/mg
same,Km,[40],35 µM and 29 µM
